One molecule from patent US20200299408A1 (Genentech, published 2020) can be followed below.

Holding throughout (assay): SPR (Biacore 4000): CD3εγ variant captured from the periplasmic fraction on UCHT1v9; analyte a bispecific antibody with one 38E4v1 arm and one irrelevant arm, 0.39-100 nM
In one experiment the target is T1, G3A.
T1 construct: Residue number counts from the N-terminus of CD3ε; also called CD3εγ G3A; CD3 mutant G3A
T1 single chain CD3ε-26mer linker-CD3γ: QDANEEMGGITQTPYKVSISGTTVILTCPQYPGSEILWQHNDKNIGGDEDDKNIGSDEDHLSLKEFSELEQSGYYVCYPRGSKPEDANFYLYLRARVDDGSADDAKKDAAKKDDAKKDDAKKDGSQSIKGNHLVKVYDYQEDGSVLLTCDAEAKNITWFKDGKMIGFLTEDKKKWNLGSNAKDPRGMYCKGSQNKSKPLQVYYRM
How it is done: (§1) The secreted CD3εγ variants were captured from the crude periplasmic fraction using anti-CD3 antibody UCHT1v9. UCHT1v9 was immobilized on a CM5 serios S chip through amine coupling using the anti-human IgG (Fc) antibody capture kit (BR-1008-39) from GE Healthcare. SPR measurements were performed on the Biacore 4000 instrument, utilizing kinetic evaluation software. In order to measure monovalent binding affinities, anti-CD3 bispecific antibodies were used in which one arm was the anti-CD3 to be tested and the arm recognized an irrelevant antigen. The bispecific anti-CD3 antibodies were passed over the captured supernatant in a concentration series of two-fold dilutions from 0.39 to 100 nM. The resulting kinetics (FIG. 13D) were measured and calculated using Biacore 4000 BIAevaluation software (product code 28-9664-57).

The next experiment concerns the target T2, N4A.
T2 construct: Residue number counts from the N-terminus of CD3ε; also called CD3εγ N4A; CD3 mutant N4A
T2 single chain CD3ε-26mer linker-CD3γ: T1 single chain CD3ε-26mer linker-CD3γ with A3G, N4A
Here is the method:
as §1

A further experiment has as its target T3, G9A.
T3 construct: Residue number counts from the N-terminus of CD3ε; also called CD3εγ G9A
T3 single chain CD3ε-26mer linker-CD3γ: T1 single chain CD3ε-26mer linker-CD3γ with A3G, G9A
How it is done: as §1

The target in another experiment is T4, Q1A.
T4 construct: Residue number counts from the N-terminus of CD3ε; also called CD3εγ Q1A; CD3 mutant Q1A
T4 single chain CD3ε-26mer linker-CD3γ: T1 single chain CD3ε-26mer linker-CD3γ with Q1A, A3G
How it is done:
as §1

Another experiment deals with T5, D2A.
T5 construct: Residue number counts from the N-terminus of CD3ε; also called CD3εγ D2A; CD3 mutant D2A
T5 single chain CD3ε-26mer linker-CD3γ: T1 single chain CD3ε-26mer linker-CD3γ with D2A, A3G
How it is done:
as §1

The next experiment has as its target T6, G8A.
T6 construct: Residue number counts from the N-terminus of CD3ε; also called CD3εγ G8A
T6 single chain CD3ε-26mer linker-CD3γ: T1 single chain CD3ε-26mer linker-CD3γ with A3G, G8A
Here is the method: as §1

The target in the next experiment is T7, E5A.
T7 construct: Residue number counts from the N-terminus of CD3ε; also called CD3εγ E5A; CD3 mutant E5A
T7 single chain CD3ε-26mer linker-CD3γ: T1 single chain CD3ε-26mer linker-CD3γ with A3G, E5A
How it is done: as §1

The Kd is the equilibrium constant for the complex coming apart.

Where a chain is given by its changes, count along the chain named.

B1: hu38E4.v1 Fab (Fab, V domains shown)
VH: EVQLVQSGAEVKKPGASVKVSCKASGFTFTSYYIHWVRQAPGQGLEWIGWIYPENDNTKYNEKFKDRVTITADTSTSTAYLELSSLRSEDTAVYYCARDGYSRYYFDYWGQGTLVTVSS
VL: DIVMTQSPDSLAVSLGERATINCKSSQSLLNSRTRKNYLAWYQQKPGQSPKLLIYWTSTRKSGVPDRFSGSGSGTDFTLTISSLQAEDVAVYYCKQSFILRTFGQGTKVEIK
notes: Humanized anti-CD3 Fab; Point mutants of it were expressed as Fabs in HEK293 cells
Consider B1, for which the Kd in the experiment with G3A turned out to be 7 nM; in the experiment with N4A, 3 nM; with G9A, 6 nM; with Q1A it was 1000 nM; with D2A, 1500 nM; with G8A it was 8 nM. This molecule showed a Kd in the experiment with E5A of 7 nM.
